Laboratory results as given in paper doi:10.1101/651877 (bioRxiv, 2019).

How the values were obtained:
[1] = target: wild type Mfn2 with a C-terminal 3xFLAG tag (UniProt Q80U63); experiment: native gel or EMSA
native gel or EMSA = target: the molecule itself; experiment: native gel or EMSA

wild type Mfn2 with a C-terminal 3xFLAG tag (from UniProt Q80U63 1-757) (natural protein), sequence (Q80U63 whole entry): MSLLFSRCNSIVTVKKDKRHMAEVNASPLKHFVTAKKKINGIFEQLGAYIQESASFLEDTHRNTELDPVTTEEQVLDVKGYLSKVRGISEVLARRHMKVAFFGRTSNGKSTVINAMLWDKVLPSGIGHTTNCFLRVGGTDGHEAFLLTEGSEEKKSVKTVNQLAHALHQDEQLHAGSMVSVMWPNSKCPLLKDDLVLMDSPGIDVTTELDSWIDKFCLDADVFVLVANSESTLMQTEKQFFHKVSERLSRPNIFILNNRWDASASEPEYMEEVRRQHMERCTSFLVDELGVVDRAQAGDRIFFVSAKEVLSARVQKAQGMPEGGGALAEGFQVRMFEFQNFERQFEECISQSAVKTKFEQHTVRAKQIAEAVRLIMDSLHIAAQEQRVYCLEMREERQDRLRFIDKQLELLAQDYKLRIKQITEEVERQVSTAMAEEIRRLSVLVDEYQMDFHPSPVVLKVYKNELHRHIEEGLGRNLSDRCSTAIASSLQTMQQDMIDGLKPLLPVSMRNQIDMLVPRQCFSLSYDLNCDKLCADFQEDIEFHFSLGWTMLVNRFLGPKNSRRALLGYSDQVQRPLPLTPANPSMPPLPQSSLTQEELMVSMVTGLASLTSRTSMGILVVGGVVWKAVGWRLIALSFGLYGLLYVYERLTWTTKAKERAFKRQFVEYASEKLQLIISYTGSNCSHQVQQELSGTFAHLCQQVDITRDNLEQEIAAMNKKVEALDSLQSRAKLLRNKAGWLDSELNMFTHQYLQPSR

stoichiometry N [1] | Molecule | stoichiometry N (native gel or EMSA)
2 | wild type Mfn2 with a C-terminal 3xFLAG tag (from UniProt Q80U63 1-757) (natural protein) | –
– | Mfn2^S378P with a C-terminal 3xFLAG tag (natural protein, UniProt Q80U63 1-757, looked up) MSLLFSRCNSIVTVKKDKRHMAEVNASPLKHFVTAKKKINGIFEQLGAYIQESASFLEDTHRNTELDPVTTEEQVLDVKGYLSKVRGISEVLARRHMKVAFFGRTSNGKSTVINAMLWDKVLPSGIGHTTNCFLRVGGTDGHEAFLLTEGSEEKKSVKTVNQLAHALHQDEQLHAGSMVSVMWPNSKCPLLKDDLVLMDSPGIDVTTELDSWIDKFCLDADVFVLVANSESTLMQTEKQFFHKVSERLSRPNIFILNNRWDASASEPEYMEEVRRQHMERCTSFLVDELGVVDRAQAGDRIFFVSAKEVLSARVQKAQGMPEGGGALAEGFQVRMFEFQNFERQFEECISQSAVKTKFEQHTVRAKQIAEAVRLIMDPLHIAAQEQRVYCLEMREERQDRLRFIDKQLELLAQDYKLRIKQITEEVERQVSTAMAEEIRRLSVLVDEYQMDFHPSPVVLKVYKNELHRHIEEGLGRNLSDRCSTAIASSLQTMQQDMIDGLKPLLPVSMRNQIDMLVPRQCFSLSYDLNCDKLCADFQEDIEFHFSLGWTMLVNRFLGPKNSRRALLGYSDQVQRPLPLTPANPSMPPLPQSSLTQEELMVSMVTGLASLTSRTSMGILVVGGVVWKAVGWRLIALSFGLYGLLYVYERLTWTTKAKERAFKRQFVEYASEKLQLIISYTGSNCSHQVQQELSGTFAHLCQQVDITRDNLEQEIAAMNKKVEALDSLQSRAKLLRNKAGWLDSELNMFTHQYLQPSR | 2
– | Mfn2^A383V with a C-terminal 3xFLAG tag (natural protein, UniProt Q80U63 1-757, looked up) MSLLFSRCNSIVTVKKDKRHMAEVNASPLKHFVTAKKKINGIFEQLGAYIQESASFLEDTHRNTELDPVTTEEQVLDVKGYLSKVRGISEVLARRHMKVAFFGRTSNGKSTVINAMLWDKVLPSGIGHTTNCFLRVGGTDGHEAFLLTEGSEEKKSVKTVNQLAHALHQDEQLHAGSMVSVMWPNSKCPLLKDDLVLMDSPGIDVTTELDSWIDKFCLDADVFVLVANSESTLMQTEKQFFHKVSERLSRPNIFILNNRWDASASEPEYMEEVRRQHMERCTSFLVDELGVVDRAQAGDRIFFVSAKEVLSARVQKAQGMPEGGGALAEGFQVRMFEFQNFERQFEECISQSAVKTKFEQHTVRAKQIAEAVRLIMDSLHIAVQEQRVYCLEMREERQDRLRFIDKQLELLAQDYKLRIKQITEEVERQVSTAMAEEIRRLSVLVDEYQMDFHPSPVVLKVYKNELHRHIEEGLGRNLSDRCSTAIASSLQTMQQDMIDGLKPLLPVSMRNQIDMLVPRQCFSLSYDLNCDKLCADFQEDIEFHFSLGWTMLVNRFLGPKNSRRALLGYSDQVQRPLPLTPANPSMPPLPQSSLTQEELMVSMVTGLASLTSRTSMGILVVGGVVWKAVGWRLIALSFGLYGLLYVYERLTWTTKAKERAFKRQFVEYASEKLQLIISYTGSNCSHQVQQELSGTFAHLCQQVDITRDNLEQEIAAMNKKVEALDSLQSRAKLLRNKAGWLDSELNMFTHQYLQPSR | 2
– | Mfn2^C390F with a C-terminal 3xFLAG tag (natural protein, UniProt Q80U63 1-757, looked up) MSLLFSRCNSIVTVKKDKRHMAEVNASPLKHFVTAKKKINGIFEQLGAYIQESASFLEDTHRNTELDPVTTEEQVLDVKGYLSKVRGISEVLARRHMKVAFFGRTSNGKSTVINAMLWDKVLPSGIGHTTNCFLRVGGTDGHEAFLLTEGSEEKKSVKTVNQLAHALHQDEQLHAGSMVSVMWPNSKCPLLKDDLVLMDSPGIDVTTELDSWIDKFCLDADVFVLVANSESTLMQTEKQFFHKVSERLSRPNIFILNNRWDASASEPEYMEEVRRQHMERCTSFLVDELGVVDRAQAGDRIFFVSAKEVLSARVQKAQGMPEGGGALAEGFQVRMFEFQNFERQFEECISQSAVKTKFEQHTVRAKQIAEAVRLIMDSLHIAAQEQRVYFLEMREERQDRLRFIDKQLELLAQDYKLRIKQITEEVERQVSTAMAEEIRRLSVLVDEYQMDFHPSPVVLKVYKNELHRHIEEGLGRNLSDRCSTAIASSLQTMQQDMIDGLKPLLPVSMRNQIDMLVPRQCFSLSYDLNCDKLCADFQEDIEFHFSLGWTMLVNRFLGPKNSRRALLGYSDQVQRPLPLTPANPSMPPLPQSSLTQEELMVSMVTGLASLTSRTSMGILVVGGVVWKAVGWRLIALSFGLYGLLYVYERLTWTTKAKERAFKRQFVEYASEKLQLIISYTGSNCSHQVQQELSGTFAHLCQQVDITRDNLEQEIAAMNKKVEALDSLQSRAKLLRNKAGWLDSELNMFTHQYLQPSR | 2
– | Mfn2^Q386P with a C-terminal 3xFLAG tag (natural protein, UniProt Q80U63 1-757, looked up) MSLLFSRCNSIVTVKKDKRHMAEVNASPLKHFVTAKKKINGIFEQLGAYIQESASFLEDTHRNTELDPVTTEEQVLDVKGYLSKVRGISEVLARRHMKVAFFGRTSNGKSTVINAMLWDKVLPSGIGHTTNCFLRVGGTDGHEAFLLTEGSEEKKSVKTVNQLAHALHQDEQLHAGSMVSVMWPNSKCPLLKDDLVLMDSPGIDVTTELDSWIDKFCLDADVFVLVANSESTLMQTEKQFFHKVSERLSRPNIFILNNRWDASASEPEYMEEVRRQHMERCTSFLVDELGVVDRAQAGDRIFFVSAKEVLSARVQKAQGMPEGGGALAEGFQVRMFEFQNFERQFEECISQSAVKTKFEQHTVRAKQIAEAVRLIMDSLHIAAQEPRVYCLEMREERQDRLRFIDKQLELLAQDYKLRIKQITEEVERQVSTAMAEEIRRLSVLVDEYQMDFHPSPVVLKVYKNELHRHIEEGLGRNLSDRCSTAIASSLQTMQQDMIDGLKPLLPVSMRNQIDMLVPRQCFSLSYDLNCDKLCADFQEDIEFHFSLGWTMLVNRFLGPKNSRRALLGYSDQVQRPLPLTPANPSMPPLPQSSLTQEELMVSMVTGLASLTSRTSMGILVVGGVVWKAVGWRLIALSFGLYGLLYVYERLTWTTKAKERAFKRQFVEYASEKLQLIISYTGSNCSHQVQQELSGTFAHLCQQVDITRDNLEQEIAAMNKKVEALDSLQSRAKLLRNKAGWLDSELNMFTHQYLQPSR | 2
